Test results as given in patent US20180305450A1 (AstraZeneca / MedImmune, published 2018).
Residue numbers refer to the chain shown, from its start. Values belong to the binder of their own block, whether it stands above or below them.

Tests used:
[1] = target: T1, recombinant biotinylated human PAR2 extracellular domain (residues 1-75), N-terminal AviTag, C-terminal Flag … (human, UniProt P55085 26-75, biotin on the AviTag (enzymatic biotinylation)); assay: HTRF competition with Par0067 IgG, scFv
T1 construct: also called Bio-human-PAR2 ECD; human PAR2 ECD; not shown: N-terminal AviTag (Avidity LLC); C-terminal Flag and poly Histidine tags
Procedure: (§1) 5 μl/well of the appropriate pH 4.44 nM Par0067 IgG solution was added to all wells of the relevant assay plate (pH 7.4 and pH 6.0).
(§2) Test scFv Preparation/Addition: [0172] a) For parallel single point HTS of crude un-purified bacterial lysate scFv samples at both pH 7.4 and pH 6.0 samples were first pre-diluted to 40% of their neat concentration using either pH 7.4 or pH 6.0 assay buffer as appropriate. Subsequently 5 μl of 40% pre-diluted sample was then transferred into the appropriate assay (pH 7.4 or pH 6.0) in order to give a final assay sample concentration of 10.0% (in the 20 μl final assay volume). The parent Par0067 scFv was included in all HTS experiments as a control as were specific pH dependent antibodies as those became available (for benchmarking). […] Duplicate 11 point 1:3 serial dilutions then were prepared on 384 well polypropylene Greiner plates in each of the two assay buffers (pH 7.4 & 6.0). 5 μl per well of each serial dilution was transferred from the relevant pH scFv dilution plate to the corresponding assay plate (pH 7.4 and pH 6.0). 5 μl of the appropriate pH assay buffer was added to the total and non-specific wells. The parent Par0067 purified scFv was included in all multipoint dose response IC₅₀ experiments as a control as were specific pH dependent purified scFv as those became available (for benchmarking).
(§3) For multipoint dose response curves % Specific Binding values were plotted versus test purified antibody concentration (scFv or IgG). IC₅₀ values were determined via a sigmoidal dose response inhibition variable slope curve fit (4 parameter logistic equation) using Graphpad Prism Software.

[2] = target: T1, recombinant biotinylated human PAR2 …; assay: HTRF competition with Par0067 IgG, pH 6.0, scFv
Procedure: as §1, §2, §3

[3] = target: T1, recombinant biotinylated human PAR2 …; assay: HTRF competition with Par0067 IgG, pH 7.4, scFv
Procedure: as §1, §2, §3

T1 sequence (P55085 26-75): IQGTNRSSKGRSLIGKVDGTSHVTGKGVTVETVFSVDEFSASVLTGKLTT

B4: PaB670094 scFv (scFv, V domains shown)
VH: EVQLLESGGGLVQPGGSLRLSCAASGFTFSSYAMNWVRQAPGKGLEWVSTISYHGHHISHADHHKGRFTISRDNSKNTLYLQMNSLRAEDTAVYYCARINNDPMDVWGQGTLVTVSS
VL: SIELTQPPSVSVSPGQTASITCSGDNLGKKYVQWYQQKPGQSPVLVIYDDSNRPSGIPERFSGSNSGNTATLTISGTQAMDEADYYCQTWDGNPTTGETNVFGGGTKLTVL
notes: purified scFv; also called ZZ1ODS-B08
- Fold IC50 (pH 6.0 v pH 7.4) [1]: 3.3 fold
- Fold IC50 pH 7.4 (Variant v Par0067) [1]: 22 fold
- IC50 [2]: 237 nM
- IC50 [3]: 72.5 nM

B5: PaB670101 scFv (scFv, V domains shown)
VH: EVQLLESGGGLVQPGGSLRLSCAASGFTFSSYAMNWVRQAPGKGLEWVSTISYSGSLISYADSVKGRFTISRDNSKNTLYLQMNSLRAEDTAVYYCARIHHHPHDHWGQGTLVTVSS
VL: B4 VL
notes: purified scFv; also called ZZ1ODO-H01
- Fold IC50 (pH 6.0 v pH 7.4) [1]: 3.4 fold
- Fold IC50 pH 7.4 (Variant v Par0067) [1]: 44.5 fold
- IC50 [2]: 496 nM
- IC50 [3]: 147 nM

B6: PaB670107 scFv (scFv, V domains shown)
VH: B5 VH with H100N, H101N, H102D, H104M, H106V
VL: B4 VL with Q88H, T89H, D91H, G92H, T96H, G97H
notes: purified scFv; also called ZZ1RD3-D09
- Fold IC50 (pH 6.0 v pH 7.4) [1]: 10.9 fold
- Fold IC50 pH 7.4 (Variant v Par0067) [1]: 12.9 fold
- IC50 [2]: 464 nM
- IC50 [3]: 42.7 nM

B8: PaB670103 scFv (scFv, V domains shown)
VH: B5 VH with H100N, H101N, H102D, H104M, H106V
VL: B4 VL with Q88H, N93H, P94H, V101H
notes: purified scFv; also called ZZ1RCX-C09
- Fold IC50 (pH 6.0 v pH 7.4) [1]: 7.3 fold
- Fold IC50 pH 7.4 (Variant v Par0067) [1]: 8.5 fold
- IC50 [2]: 204 nM
- IC50 [3]: 27.9 nM

B10: PaB670105 scFv (scFv, V domains shown)
VH: B5 VH with H100N, H101N, H102D, H104M, H106V
VL: B4 VL with T89H, D91H, T95H, T99H, V101H
notes: purified scFv; also called ZZ1RD0-D01
- Fold IC50 (pH 6.0 v pH 7.4) [1]: 6.7 fold
- Fold IC50 pH 7.4 (Variant v Par0067) [1]: 22.5 fold
- IC50 [2]: 496 nM
- IC50 [3]: 74.4 nM

B11: PaB670098 scFv (scFv, V domains shown)
VH: B4 VH with Y53H, H54S, H57L, I58H, S59H, H60Y, H63S, G66H
VL: B4 VL
notes: purified scFv; also called ZZ1ODT-G01
- Fold IC50 (pH 6.0 v pH 7.4) [1]: 3.2 fold
- Fold IC50 pH 7.4 (Variant v Par0067) [1]: 20 fold
- IC50 [2]: 210 nM
- IC50 [3]: 65.9 nM

B12: PaB670104 scFv (scFv, V domains shown)
VH: B5 VH with H100N, H101N, H102D, H104M, H106V
VL: B4 VL with T89H, N93H, P94H, T95H
notes: purified scFv
- Fold IC50 (pH 6.0 v pH 7.4) [1]: 9.3 fold
- Fold IC50 pH 7.4 (Variant v Par0067) [1]: 6.6 fold
- IC50 [2]: 202 nM
- IC50 [3]: 21.7 nM

B17: PaB670106 scFv (scFv, V domains shown)
VH: B5 VH with H100N, H101N, H102D, H104M, H106V
VL: B4 VL with Q88H, G92H, T95H, T96H, G97H, E98H, V101H
notes: purified scFv; also called ZZ1RD0-G02
- Fold IC50 (pH 6.0 v pH 7.4) [1]: 3.8 fold
- Fold IC50 pH 7.4 (Variant v Par0067) [1]: 94.8 fold
- IC50 [2]: 1190 nM
- IC50 [3]: 313 nM

The next binders have a lower IC50 [2] than those just listed; values first:

- Fold IC50 (pH 6.0 v pH 7.4) [1]: 3.9 fold
- Fold IC50 pH 7.4 (Variant v Par0067) [1]: 7.6 fold
- IC50 [2]: 98.9 nM
- IC50 [3]: 25.2 nM
B1: PaB670091 scFv (scFv, V domains shown)
VH: B4 VH with Y53H, H54S, H57L, S59H, A61H, D62H, H63S, H64V
VL: B4 VL
notes: purified scFv; also called ZZ1ODR-G02

- Fold IC50 (pH 6.0 v pH 7.4) [1]: 1.1 fold
- Fold IC50 pH 7.4 (Variant v Par0067) [1]: 1 fold
- IC50 [2]: 3.6 nM
- IC50 [3]: 3.3 nM
B2: Par0067 scFv (scFv, V domains shown)
VH: B5 VH with H100N, H101N, H102D, H104M, H106V
VL: B4 VL
notes: purified scFv, parent clone; also called ZZ15D2-D02

- Fold IC50 (pH 6.0 v pH 7.4) [1]: 5.7 fold
- Fold IC50 pH 7.4 (Variant v Par0067) [1]: 6.1 fold
- IC50 [2]: 113 nM
- IC50 [3]: 20 nM
B3: PaB670095 scFv (scFv, V domains shown)
VH: B4 VH with H60Y, H63S, K65H, G66H
VL: B4 VL
notes: purified scFv; also called ZZ1ODS-H05

- Fold IC50 (pH 6.0 v pH 7.4) [1]: 3.6 fold
- Fold IC50 pH 7.4 (Variant v Par0067) [1]: 6.6 fold
- IC50 [2]: 77.9 nM
- IC50 [3]: 21.8 nM
B7: PaB670097 scFv (scFv, V domains shown)
VH: B4 VH with S52H, Y53H, H54S, H57L, I58H, H60Y, A61H, D62H, H64V
VL: B4 VL
notes: purified scFv; also called ZZ1ODT-E11

- Fold IC50 (pH 6.0 v pH 7.4) [1]: 4.7 fold
- Fold IC50 pH 7.4 (Variant v Par0067) [1]: 12.5 fold
- IC50 [2]: 194 nM
- IC50 [3]: 41.1 nM
B9: PaB670092 scFv (scFv, V domains shown)
VH: B4 VH with H56S, H60Y, A61H, H63S, K65H
VL: B4 VL
notes: purified scFv; also called ZZ1ODR-G11

- Fold IC50 (pH 6.0 v pH 7.4) [1]: 3.2 fold
- Fold IC50 pH 7.4 (Variant v Par0067) [1]: 5.6 fold
- IC50 [2]: 58.7 nM
- IC50 [3]: 18.6 nM
B13: PaB670093 scFv (scFv, V domains shown)
VH: B4 VH with G55H, H57L, H63S, H64V
VL: B4 VL
notes: purified scFv; also called ZZ1ODR-H04

- Fold IC50 (pH 6.0 v pH 7.4) [1]: 4.8 fold
- Fold IC50 pH 7.4 (Variant v Par0067) [1]: 3.9 fold
- IC50 [2]: 62.4 nM
- IC50 [3]: 12.9 nM
B14: PaB670099 scFv (scFv, V domains shown)
VH: B4 VH with H56S, H60Y, A61H, H63S, H64V, K65H, G66H
VL: B4 VL
notes: purified scFv

- Fold IC50 (pH 6.0 v pH 7.4) [1]: 3.4 fold
- Fold IC50 pH 7.4 (Variant v Par0067) [1]: 6.2 fold
- IC50 [2]: 69 nM
- IC50 [3]: 20.3 nM
B15: PaB670100 scFv (scFv, V domains shown)
VH: B4 VH with D62H, H64V, K65H
VL: B4 VL
notes: purified scFv

- Fold IC50 (pH 6.0 v pH 7.4) [1]: 2.6 fold
- Fold IC50 pH 7.4 (Variant v Par0067) [1]: 1.6 fold
- IC50 [2]: 13.7 nM
- IC50 [3]: 5.3 nM
B16: PaB670102 scFv (scFv, V domains shown)
VH: B5 VH with H100N, H102D, H104M
VL: B4 VL
notes: purified scFv; also called ZZ1PXS-F08

- Fold IC50 (pH 6.0 v pH 7.4) [1]: 5.1 fold
- Fold IC50 pH 7.4 (Variant v Par0067) [1]: 8.8 fold
- IC50 [2]: 149 nM
- IC50 [3]: 29.1 nM
B18: PaB670108 scFv (scFv, V domains shown)
VH: B5 VH with H100N, H101N, H102D, H104M, H106V
VL: B4 VL with T89H, D91H, N93H, P94H, T95H
notes: purified scFv; also called ZZ1RD3-H03
